# Like-named read-outs stand apart in the source and are kept apart here.
# Key:
# [1] = CsA encapsulation by two-phase solvent evaporation, RP-HPLC; type: physicochemical; conditions: FIG. 16
# Method: The mixture was incubated at 37° C. and samples were collected at different time points up to 48 h.
# This was followed by high-speed centrifugation and filtration to remove the excess insoluble drug. […] The mobile phase flow rate was set to 1.0 ml/min. The linear gradient from 20% to 95% of methanol was applied from 0 to 5 min. Then the mobile phase was changed to 95% methanol isocratic flow for 10 min.
# This was followed by high-speed centrifugation and filtration to remove the excess insoluble drug. The loading ratio was then determined by reversed-phase high-performance liquid chromatography (RP-HPLC) analysis method.
# The drug loading capability of 2nd and 3rd generation carriers were also tested using the same encapsulation method detailed above employing the method of Shi, et al., 2013.
# [2] = test system: IL-2 secretion, Jurkat cells; assay: IL-2 secretion assay in activated Jurkat cells (ELISA); type: cell-based; conditions: Homo sapiens, n=3, mean±SD
# Method: Upon stimulation, Jurkat cells produce IL-2.
# IL-2 concentration in culture media is then assessed using ELISA assay.
# [3] = Multivariate fit of the phase diagram of ELP monoblock copolymers; type: physicochemical; conditions: for Tc: critical transition temperature; for n: dependence on inverse of ELP length; for m: dependence on natural logarithm of concentration; for K: interaction term between length and concentration
# Excerpt: The Tt of the ELP component can be modified by varying ELP chain length, as the Tt generally increases with decreasing MW. For polypeptides having a molecular weight >100,000, the hydrophobicity scale developed by Urry et al. (PCT/US96/05186, which is hereby incorporated by reference in its entirety) is preferred for predicting the approximate Tt of a specific ELP sequence. However, in some embodiments, ELP component length can be kept relatively small, while maintaining a target Tt, by incorporating a larger fraction of hydrophobic guest residues (e.g., amino acid residues having hydrophobic side chains) in the ELP sequence. For polypeptides having a molecular weight <100,000, the Tt may be predicted or determined by the following function:
# [formula] where Tc is a critical transition temperature, m is the dependence on the natural logarithm of concentration, n is the dependence on the inverse of the ELP length l, and k is an interaction term between length and concentration.
# Pin1 = Pin1 (Homo sapiens, UniProt Q13526); conditions: cited from earlier work
# Pin1, sequence (Q13526 whole entry): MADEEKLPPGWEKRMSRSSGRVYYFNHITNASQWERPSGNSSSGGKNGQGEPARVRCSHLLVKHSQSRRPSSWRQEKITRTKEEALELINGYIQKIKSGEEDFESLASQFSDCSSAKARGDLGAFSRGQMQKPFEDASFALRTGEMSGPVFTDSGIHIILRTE
# [4] = cited from earlier work
# [5] = Phase transition temperature by optical density (UV-Vis, 350 nm) versus temperature; type: physicochemical; conditions: at 25 μM; 1° C./min
# Method: The temperature with the maximum positive slope was defined as the phase transition temperature for each condition. (FIG. 2B) The concentration-temperature phase diagram was determined for both ELPs, and fit to the following equation: Tt=b−m Log10[CELP].
# Both ELPs at different concentrations (5 μM to 100 μM) were subject to a precisely controlled temperature increase from 25 to 75° C. at a rate of 1° C./min. The Tt of ELPs is defined as the temperature at which the first derivative of the optical density with respect to the temperature reaches a maximum.
# [6] = Dynamic light scattering (DLS) hydrodynamic radius and stability; type: physicochemical; conditions: 99.2% by mass of fraction 2
# Method: FIGS. 5A-5D: CA192 (SEQ ID NO: 3) has a good stability in terms of hydrodynamic radius. There are two fractions present in the CA192 (SEQ ID NO: 3) solution: an aggregated form and dimeric form. A dimerized form has similar hydrodynamic radius, Rh as A192. […] Drug-loaded CA192 (SEQ ID NO: 3) has a mean Rh of 64.5±0.5 nm (p<0.05). […] (FIG. 5C) Size Exclusion Chromatography (SEC) was conducted to fractionate CA192 (SEQ ID NO: 3) depending on their particle size. Two fractions were observed. […] In contrast, the fraction 1 contains a mixture of larger aggregates.
# The hydrodynamic radius (Rh) of both the loaded and unloaded fusion protein, along with plain A192, was measured via dynamic light scattering (DLS) using a DynaPro Plate Reader II from Wyatt Technology. Before the DLS measurement, solutions were filtered through […] pore size filters. The concentration of each solution was then adjusted to 20 μM. 60 μL from each sample was pipetted into three different wells on the plate reader and covered by 15 μL mineral oil each to avoid solvent evaporation. Centrifugation was then performed to remove air bubbles. […] Based on this DLS method, Applicants performed a stability assay to explore the stability of the fusion protein by measuring the mean Rh shift during incubation at physiological temperature. Briefly, the fusion solution was incubated at 37° C. for different periods of time up to 48 h and the mean Rh of CA192 at these different time points was measured with DLS. […] There might be some slight aggregation occurring in the CA192 protein solution. […] To determine if this was the case, further separation was conducted with size exclusion chromatography (SEC). This process was performed at 4° C. using a Hiload 26/600 column (26×600 mm, particle size 24-44 μM). […] Fragments with absorption above 10 mAu were collected and concentrated with a Spin-X concentrator (pore size 10 kDa). […] (FIG. 5D) Through measuring the CA192 concentration of both fractions, Applicants determined that 20.8% by mass in solution is represented by the multimerized particles. […]
molecule,measurement,setting,value
"CA96C: 2nd generation carrier CypA-A96-CypA, SEQ ID NO: 8",CsA loading ratio,[1],127.5%
"C/C=C/C[C@@H](C)[C@@H](O)[C@H]1C(=O)N[C@@H](CC)C(=O)N(C)CC(=O)N(C)[C@@H](CC(C)C)C(=O)N[C@@H](C(C)C)C(=O)N(C)[C@@H](CC(C)C)C(=O)N[C@@H](C)C(=O)N[C@H](C)C(=O)N(C)[C@@H](CC(C)C)C(=O)N(C)[C@@H](CC(C)C)C(=O)N(C)[C@@H](C(C)C)C(=O)N1C [CsA, Cyclosporin A]",IC50,"[2]; PMA and Ionomycin, 6 h, read-out: IC50, IL-2 secretion assay",0.522 ± 0.152 nM
same,IC50,"[2]; FIG. 10 legend, read-out: IC50, IL-2 inhibition",0.522 ± 0.152 nM
"(Val-Pro-Gly-Val-Gly): ELP monoblock library, SEQ ID NO: 62 (VPGVG)",Tc,[3],21.2 ± 0.9 °C
same,n,[3],1607 ± 90 °C pentamers
same,m,[3],0 ° C./ln(μM)
same,K,[3],−163.1 ± 23.3 °C pentamers/ln(μM)
"(Val-Pro-Gly-Ile-Gly): ELP monoblock library, SEQ ID NO: 63 (VPGIG)",Tc,[3],13.0 ± 0.6 °C
same,n,[3],760 ± 30 °C pentamers
same,m,[3],0 ° C./ln(μM)
same,K,[3],−81.2 ± 7.9 °C pentamers/ln(μM)
"CC1=C(/C=C/C(C)=C/C=C/C(C)=C/C(=O)O)C(C)(C)CCC1 [ATRA, All trans retinoic acid]",affinity to Pin1,Pin1,sun-micromolar affinity
same,AUC on 28th day of administration relative to AUC on day 1,[4]; daily treatment,10%
same,half-life,[4]; in vivo,45 min
dimerized CA192: dimeric fraction of CA192 isolated by size exclusion chromatography,Transition temperature (Tt),[5],49.3 °C
same,hydrodynamic radius (Rh) after SEC,[6],6.5±0.1 nm
"3(CA)C: 3rd generation carrier CypA-A24-CypA-A24-CypA-A24-CypA, SEQ ID NO: 9",CsA loading ratio,[1],209.0%
